Source: patent US20200010567A1 (NEURIMMUNE, published 2020)

Tests used:
[1] = target: T1, (GA)15: H-CHHHHHH(GA)15-OH; test: indirect ELISA, uncoupled peptide coated, antibody titrated [also D00013 FIG. 3D]
T1 construct: synthetic, not coupled to BSA; also called poly-GA DPR protein peptide
T1 peptide: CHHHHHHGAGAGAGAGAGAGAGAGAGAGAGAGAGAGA
Description: (§1) In brief, dipeptide repeat proteins were synthesized and purified by Schafer-N(Copenhagen, Denmark): (GA)₁₅: H-CHHHHHH(GA)₁₅-OH; (GP)₁₅: H-C(GP)₁₅-OH; (GR)₁₅: H-C(GR)₁₅-OH; (PA)₁₅: H-C(PA)₁₅-OH; (PR)₁₅: H—C(PR)₁₅-OH. DPR protein peptides were then conjugated via a bifunctional linker (SMCC) to bovine serum albumin (BSA). 96-well microplates (Corning Incorporated, Corning, USA) were coated with BSA-coupled or -uncoupled dipeptide repeat protein peptides at a concentration of either 5 μg/ml or 20 μg/ml in coating buffer (15 mM Na₂CO₃, 35 mM NaHCO₃, pH 9.42). Non-specific binding sites were blocked for 1 h at room temperature with PBS/0.1% Tween®-20 containing 2% BSA (Sigma-Aldrich, Buchs, Switzerland). Primary antibodies were diluted to the indicated concentrations and incubated 1 h at room temperature, followed by incubation with a donkey anti-human IgG Fcγ-specific antibody conjugated with HRP (Jackson ImmunoResearch Laboratories, Inc., West Grove, USA). Binding was determined by measurement of HRP activity in a standard colorimetric assay. EC₅₀ values were estimated by non-linear regression using GraphPad Prism software (San Diego, USA).

[2] = target: T1, (GA)15: H-CHHHHHH(GA)15-OH; test: indirect ELISA, uncoupled peptide coated, antibody titrated [also D00012 FIG. 3B]
Description: as §1

(PR)15: H-C(PR)15-OH = target: T2, (PR)15: H-C(PR)15-OH; test: indirect ELISA, uncoupled peptide coated, antibody titrated [also D00013 FIG. 3F]
T2 construct: synthetic, not coupled to BSA; also called poly-PR DPR protein peptide
T2 peptide: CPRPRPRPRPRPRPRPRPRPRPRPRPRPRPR
Description: as §1

GP3: H-(GP)3HHHHHH-NH2 = target: T3, GP3: H-(GP)3HHHHHH-NH2; test: indirect ELISA, His-tagged peptide coated at 50 ug/ml, antibody titrated [also D00027 FIG. 7N]
T3 peptide: H-GPGPGPHHHHHH-NH2
From the text: (§2) In brief, dipeptide repeat proteins were synthesized and purified by Schafer-N (Copenhagen, Denmark): GA₂₀: H-(GA)₂₀HHHHHH-NH₂; GA₁₀: H-(GA)₁₀HHHHHH-NH₂; GA₆: H-(GA)₆HHHHHH-NH₂; GA₅: H-(GA)₅HHHHHH-NH₂; GA₄: H-(GA)₄HHHHHH-NH₂; GA₃: H-(GA)₃HHHHHH-NH₂; GA₂: H-(GA)₂HHHHHH-NH₂; GP₂₀: H-(GP)₂₀HHHHHH-NH₂; GP₁₀: H-(GP)₁₀HHHHHH-NH₂; GP₆: H-(GP)₆HHHHHH-NH₂; GP₅: H-(GP)₅HHHHHH-NH₂; GP₄: H-(GP)₄HHHHHH-NH₂; GP₃: H-(GP)₃HHHHHH-NH₂; GP₂: H-(GP)₂HHHHHH-NH₂. GR₂₀: H-(GR)₂₀HHHHHH-NH₂; GR₁₀: H-(GR)₁₀HHHHHH-NH₂; GR₆: H-(GR)₆HHHHHH-NH₂; GR₅: H-(GR)₅HHHHHH-NH₂; GR₄: H-(GR)₄HHHHHH-NH₂; GR₃: H-(GR)₃HHHHHH-NH₂; GR₂: H-(GR)₂HHHHHH-NH₂; PA₂₀: H-(PA)₂₀HHHHHH-NH₂; PA₁₀: H-(PA)₁₀HHHHHH-NH₂; PA₆: H-(PA)₆HHHHHH-NH₂; PA₅: H-(PA)₅HHHHHH-NH₂; PA₄: H-(PA)₄HHHHHH-NH₂; PA₃: H-(PA)₃HHHHHH-NH₂; PA₂: H-(PA)₂HHHHHH-NH₂; PR₂₀: H-(PR)₂₀HHHHHH-NH₂; PR₁₀: H-(PR)₁₀HHHHHH-NH₂; PR₆: H-(PR)₆HHHHHH-NH₂; PR₅: H-(PR)₅HHHHHH-NH₂; PR₄: H-(PR)₄HHHHHH-NH₂; PR₃: H-(PR)₃HHHHHH-NH₂; PR₂: H-(PR)₂HHHHHH-NH₂. 96-well microplates (Corning Incorporated, Corning, USA) were coated with dipeptide repeat protein peptides at a concentration of 50 μg/ml in coating buffer (15 mM Na₂CO₃, 35 mM NaHCO₃, pH 9.42). Non-specific binding sites were blocked for 1 h at room temperature with PBS/0.1% Tween®-20 containing 2% BSA (Sigma-Aldrich, Buchs, Switzerland). Primary antibodies were diluted to the indicated concentrations and incubated 1 h at room temperature, followed by incubation with a donkey anti-human IgG Fcγ-specific antibody conjugated with HRP (Jackson ImmunoResearch Laboratories, Inc., West Grove, USA). Binding was determined by measurement of HRP activity in a standard colorimetric assay. EC₅₀ values were estimated by non-linear regression using GraphPad Prism software (San Diego, USA).

GP5: H-(GP)5HHHHHH-NH2 = target: T4, GP5: H-(GP)5HHHHHH-NH2; test: as above
T4 peptide: H-GPGPGPGPGPHHHHHH-NH2
From the text: as §2

GP2: H-(GP)2HHHHHH-NH2 = target: T5, GP2: H-(GP)2HHHHHH-NH2; test: as above
T5 peptide: H-GPGPHHHHHH-NH2
From the text: as §2

GP4: H-(GP)4HHHHHH-NH2 = target: T6, GP4: H-(GP)4HHHHHH-NH2; test: as above
T6 peptide: H-GPGPGPGPHHHHHH-NH2
From the text: as §2

[3] = target: T7, BSA-coupled (GA)15 DPR protein peptide (bovine, conjugated via a bifunctional linker (SMCC) to bovine serum albumin); test: indirect ELISA, BSA-coupled peptide coated, antibody titrated [also D00012 FIG. 3C]
T7 construct: also called BSA-(GA)15
Description: as §1

T7 sequence (P02769 25-607 limits assumed, chain 2 of 2, one chain of several): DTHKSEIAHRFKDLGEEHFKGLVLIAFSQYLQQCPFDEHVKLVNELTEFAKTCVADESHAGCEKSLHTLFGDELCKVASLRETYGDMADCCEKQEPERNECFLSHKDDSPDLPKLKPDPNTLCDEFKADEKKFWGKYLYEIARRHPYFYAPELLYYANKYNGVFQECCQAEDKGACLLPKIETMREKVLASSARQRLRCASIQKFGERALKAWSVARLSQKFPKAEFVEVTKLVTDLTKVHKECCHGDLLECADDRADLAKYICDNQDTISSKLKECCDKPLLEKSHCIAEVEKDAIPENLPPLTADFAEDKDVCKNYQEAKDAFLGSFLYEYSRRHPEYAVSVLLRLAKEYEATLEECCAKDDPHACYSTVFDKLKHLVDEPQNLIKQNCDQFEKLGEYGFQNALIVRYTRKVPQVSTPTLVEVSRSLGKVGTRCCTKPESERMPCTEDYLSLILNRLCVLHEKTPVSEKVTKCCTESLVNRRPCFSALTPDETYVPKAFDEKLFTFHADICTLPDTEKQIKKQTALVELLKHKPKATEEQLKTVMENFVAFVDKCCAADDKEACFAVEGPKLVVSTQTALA

B1: NI-308.28G1 (antibody, V domains shown)
VH: QVQLQESGPRLVKPSETLSLTCTVAGGSVNSYYWTWIQQSPGKGLEWLGRIYIAGRTNYNPSLTSRIALSVDTSRNQLSLKLTSVTAADTAIYYCARWGAESGDYYYGVDVWGPGTLVTVSS
VL: EIVMTQSPLSLPVTPGEPASISCKSSEGLLHSNGYTYLDWYLQKPGQAPQLLIFLASNRAAGVPDRFSGSGSGTDFTLKISRVEAEDVGVYYCMQAIQSPWTFGPGTKVEIK
notes: Recombinant complete human IgG1, kappa
Work on B1 yielded an EC50 [1] of 2 nM.

B2: NI-308.18F7 (antibody, V domains shown)
VH: QVQLQESGPGLVKPSETLSVTCTVSGGSINDYYWNWIRQPAGKGLEWIGRIYASGTINYNPSLQSRVTMSIDTSKNQFSLDLISVSAADTAVYYCARWGQVVGDYYYGMDVWGQGTTVTVSS
VL: EIVLTQSPLSLSVTPGEPASISCKSSQSLQHTNGYNYLDWYLLKPGQSPQLLIFLTSNRASGVPDRFSGSGSGTNFTLKISRVEAEDVGVYYCMEGIQLWTFGQGTKLEIK
notes: as for B1
B2 gave an EC50 [2] of 0.34 nM.

B3: NI-308.24E11 (antibody, V domains shown)
VH: QVQLQESGPGLVKPSETLSLTCTVSTTSLRSYFWSWIRQPPGKGLEWIGYVYYSGSTIYNPSLKNRVTISIDTSKNQFSLNLRSVTAADTAMYFCARGVPAETDARDFPPYYFDHWGQGTLVTVSS
VL: CDIQLTQSPSSLSASVGNRITFTCQASQDIRYYLNWYQQKPGKAPKLLIYDVSNLDTGVPPRFSGSGSGTNFTFTISSLQPEDIAVYYCQQYEGLPVTFGGGTKVEIK
notes: as for B1
B3 gave an EC50 ((PR)15: H-C(PR)15-OH) of 11.3 nM.

B4: NI-308.46E9 (antibody, V domains shown)
VH: QVQLQESGPGLVKPSETLSLTCTVSGASISGSTYYWGWIRQPPGKGLEYIGRIYYSGSTYYNPSLKSRATISVDTSKNQLSLTLSSVTAADTAVYYCVRPFYAGSGNSPFDYWGQGTLVTVSS
VL: CEIVLTQSPATVSVSPGERATLSCRASQSVSTNLAWYQQKPGQPPRLLIYGASTRATGIPARFSGSGSGAEFTLTISSLQSEDFVVYYCQQYNNWPPAFGGGTKVEIK
notes: as for B1
B4: no binding (tested: about 4x10^5 pM (last point)) (GP3: H-(GP)3HHHHHH-NH2); no binding (tested: about 4x10^5 pM (last point)) (GP5: H-(GP)5HHHHHH-NH2); no binding (tested: about 4x10^5 pM (last point)) (GP2: H-(GP)2HHHHHH-NH2). B4: no binding (tested: about 4x10^5 pM (last point)) (GP4: H-(GP)4HHHHHH-NH2).

B5: NI-308.15O7 (antibody, V domains shown)
VH: QVQLVESGGGVVQPGRSLRLSCAASGFTFSNHAMHWVRQAPGKGLEWVAVISYDGENTYYADSIEGRFTISRDNFKNTLFLQMYSLTADDTAMYFCARGGRRGHFTSYYLDYWGQGTLVTVSS
VL: CDIQMTQSPSSLSASVGDRVTITCRASQNIDKYLNWYQQIPGKAPKLLIYAASSLHSGVPSRFSGSGSGTDFSLTISSLQPEDFAIYYCQQSYSSFRTFGQGTKLEIK
In the case of B5, the EC50 [3] is reported as 0.41 nM.
